{
  "source": "the supplement of paper PMC10724198",
  "note": "± gives the standard deviation of the averaged measurements.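 Note: PSI is a weighted mean of sequencing reads over stability bins, variants kept only with over 10 reads, mCherry proximal and sfGFP distal, peptide attached via GGGS linker.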",
  "data": [
    {"test_system": "Saccharomyces cerevisiae", "assay": "protein stability index of tFT-peptide fusion (C-terminal peptide) (PSI (0-1 scale)); higher = more stable (slower turnover)", "conditions": "genetic background: cdc34-1; temperature: 37 C", "protocol": "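MPS profiling in S. cerevisiae of the tFT-X12 degron library: putative degron peptides plus stable controls, 12 aa, fused to the C-terminus of a sfGFP-mCherry timer. Cells are FACS-sorted into 8 mCherry/sfGFP bins and deep-sequenced. PSI runs from 0 (unstable) to 1 (stable). Backgrounds are wild type, das1Δ and doa10Δ at 30 °C, and wild type, das1Δ, cdc34-1 and cdc53-1 at 37 °C; 2-3 technical replicates each.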", "values": [
      {"sequence": "APLSPLLPPFLC", "protein stability index": "0.693 ± 0.036"},
      {"sequence": "APPPLFLIVLHL", "protein stability index": "0.469 ± 0.0062"},
      {"sequence": "APTMAIIVVHVR", "protein stability index": "0.237 ± 0.022"},
      {"sequence": "ARKIGKVIPKLG", "protein stability index": "0.686 ± 0.021"},
      {"sequence": "ASLSSSRPPLLP", "protein stability index": "0.685 ± 0.053"},
      {"sequence": "ASLVGGVLLVVV", "protein stability index": "0.495 ± 0.0051"},
      {"sequence": "AWPGRLWYFWLA", "protein stability index": "0.655 ± 0.028"},
      {"sequence": "AYCGGRNKCTTE", "protein stability index": "0.689 ± 0.015"},
      {"sequence": "AYVAPRRALMCS", "protein stability index": "0.422 ± 0.02"},
      {"sequence": "CEERVKSRLKQN", "protein stability index": "0.619 ± 0.011"},
      {"sequence": "CFCLFVFFISSC", "protein stability index": "0.2112 ± 0.00091"},
      {"sequence": "CFCSFQFVRLWV", "protein stability index": "0.593 ± 0.0065"},
      {"sequence": "CFFFPCFSFRFL", "protein stability index": "0.39 ± 0.0076"},
      {"sequence": "CFFICGVFVFLM", "protein stability index": "0.21 ± 0.07"},
      {"sequence": "CFFILSLMVVVI", "protein stability index": "0.0733 ± 0.0068"},
      {"sequence": "CFFLSFNVFRLF", "protein stability index": "0.465 ± 0.059"},
      {"sequence": "CFVISVLFFFVG", "protein stability index": "0.292 ± 0.011"},
      {"sequence": "CFVLVVCIPVMV", "protein stability index": "0.2 ± 0.0041"},
      {"sequence": "CFVQVGGLVKIS", "protein stability index": "0.66 ± 0.045"},
      {"sequence": "CFVSFLHLLYFS", "protein stability index": "0.347 ± 0.044"},
      {"sequence": "CGFVCGLCLCRV", "protein stability index": "0.552 ± 0.052"},
      {"sequence": "CGFVFFVLVVFW", "protein stability index": "0.112 ± 0.0055"},
      {"sequence": "CGQIAFLGIAVK", "protein stability index": "0.479 ± 0.0077"},
      {"sequence": "CGWFVSVGWRLG", "protein stability index": "0.5443 ± 0.0014"},
      {"sequence": "CHFLLHYVFLLS", "protein stability index": "0.3792 ± 0.0019"},
      {"sequence": "CHPIPLARLAPT", "protein stability index": "0.671 ± 0.032"},
      {"sequence": "CKKATILRIKSM", "protein stability index": "0.589 ± 0.049"},
      {"sequence": "CLCYFLFYFLFV", "protein stability index": "0.49 ± 0.0055"},
      {"sequence": "CLEHLVYCRLAS", "protein stability index": "0.435 ± 0.046"},
      {"sequence": "CLHFLTWVRICS", "protein stability index": "0.2 ± 0.041"},
      {"sequence": "CLNPCVRWDGHV", "protein stability index": "0.739 ± 0.065"},
      {"sequence": "CMAWLSVLKTLF", "protein stability index": "0.709 ± 0.082"},
      {"sequence": "CRQDWMCFVYLS", "protein stability index": "0.0642 ± 0.013"},
      {"sequence": "CVFAYSPVALRC", "protein stability index": "0.543 ± 0.025"},
      {"sequence": "CVFGFACRVLVV", "protein stability index": "0.288 ± 0.012"},
      {"sequence": "CYKYTYVKNNMI", "protein stability index": "0.689 ± 0.042"},
      {"sequence": "CYRRCQAFLVLV", "protein stability index": "0.313 ± 0.024"},
      {"sequence": "DFVFFLVSVRFR", "protein stability index": "0.103 ± 0.039"},
      {"sequence": "DGSFCLLYMTIA", "protein stability index": "0.504 ± 0.066"},
      {"sequence": "DGYLFKGIWFFV", "protein stability index": "0.645 ± 0.011"},
      {"sequence": "DKVTLLRRCKQY", "protein stability index": "0.606 ± 0.03"},
      {"sequence": "DLRGLGRFRISH", "protein stability index": "0.6886 ± 0.0067"},
      {"sequence": "DLVGRETRMRLN", "protein stability index": "0.6744 ± 0.0063"},
      {"sequence": "DPTLLLYPLSPL", "protein stability index": "0.688 ± 0.018"},
      {"sequence": "DVVRWQRVRNYV", "protein stability index": "0.687 ± 0.024"},
      {"sequence": "EGGGGRFWVCVG", "protein stability index": "0.676 ± 0.044"},
      {"sequence": "EKHRRYAITKFI", "protein stability index": "0.666 ± 0.019"},
      {"sequence": "EKKNQTAYNKTV", "protein stability index": "0.691 ± 0.035"},
      {"sequence": "EKTKTKRERKIN", "protein stability index": "0.576 ± 0.0019"},
      {"sequence": "ELNERRKRLVTN", "protein stability index": "0.623 ± 0.052"},
      {"sequence": "ERNERKYKIKIT", "protein stability index": "0.699 ± 0.018"},
      {"sequence": "ESCFGMAIFCVT", "protein stability index": "0.526 ± 0.012"},
      {"sequence": "ESCIFLMWLTVL", "protein stability index": "0.177 ± 0.013"},
      {"sequence": "ESFIKFALYIVN", "protein stability index": "0.557 ± 0.052"},
      {"sequence": "EVVFHVFLVGLV", "protein stability index": "0.314 ± 0.015"},
      {"sequence": "FALPPSLLLLSA", "protein stability index": "0.544 ± 0.019"},
      {"sequence": "FCCLIGYIWYGW", "protein stability index": "0.45071 ± 0.00045"},
      {"sequence": "FCFLLLSWAFWV", "protein stability index": "0.155 ± 0.026"},
      {"sequence": "FCFVRGLLFLFF", "protein stability index": "0.476 ± 0.0094"},
      {"sequence": "FCIYLCLSTSIT", "protein stability index": "0.0795 ± 0.0063"}
    ]}
  ]
}
